Results published in paper PMC2641028.

Experiments:
[1] = molecular target: CP-MVP-Z recombinant vaults
[2] = molecular target: CP-MVP-Z recombinant vaults; assay: ELISA

Substance	other [1]	EC50 [2]
mouse IgG (Sigma) (antibody)	52%	–
rabbit IgG (Sigma) (antibody)	92%	0.25 nM
